For this assay, the target named is rat collagen (Type I collagen), coated on 96-well plates (rat) (UniProt P02454). Description: binding of fluorescent protein or nanoworm conjugate to coated 96-well plates.
Chain of UniProt P02454 (P02454 152-1207, chain 1 of 2): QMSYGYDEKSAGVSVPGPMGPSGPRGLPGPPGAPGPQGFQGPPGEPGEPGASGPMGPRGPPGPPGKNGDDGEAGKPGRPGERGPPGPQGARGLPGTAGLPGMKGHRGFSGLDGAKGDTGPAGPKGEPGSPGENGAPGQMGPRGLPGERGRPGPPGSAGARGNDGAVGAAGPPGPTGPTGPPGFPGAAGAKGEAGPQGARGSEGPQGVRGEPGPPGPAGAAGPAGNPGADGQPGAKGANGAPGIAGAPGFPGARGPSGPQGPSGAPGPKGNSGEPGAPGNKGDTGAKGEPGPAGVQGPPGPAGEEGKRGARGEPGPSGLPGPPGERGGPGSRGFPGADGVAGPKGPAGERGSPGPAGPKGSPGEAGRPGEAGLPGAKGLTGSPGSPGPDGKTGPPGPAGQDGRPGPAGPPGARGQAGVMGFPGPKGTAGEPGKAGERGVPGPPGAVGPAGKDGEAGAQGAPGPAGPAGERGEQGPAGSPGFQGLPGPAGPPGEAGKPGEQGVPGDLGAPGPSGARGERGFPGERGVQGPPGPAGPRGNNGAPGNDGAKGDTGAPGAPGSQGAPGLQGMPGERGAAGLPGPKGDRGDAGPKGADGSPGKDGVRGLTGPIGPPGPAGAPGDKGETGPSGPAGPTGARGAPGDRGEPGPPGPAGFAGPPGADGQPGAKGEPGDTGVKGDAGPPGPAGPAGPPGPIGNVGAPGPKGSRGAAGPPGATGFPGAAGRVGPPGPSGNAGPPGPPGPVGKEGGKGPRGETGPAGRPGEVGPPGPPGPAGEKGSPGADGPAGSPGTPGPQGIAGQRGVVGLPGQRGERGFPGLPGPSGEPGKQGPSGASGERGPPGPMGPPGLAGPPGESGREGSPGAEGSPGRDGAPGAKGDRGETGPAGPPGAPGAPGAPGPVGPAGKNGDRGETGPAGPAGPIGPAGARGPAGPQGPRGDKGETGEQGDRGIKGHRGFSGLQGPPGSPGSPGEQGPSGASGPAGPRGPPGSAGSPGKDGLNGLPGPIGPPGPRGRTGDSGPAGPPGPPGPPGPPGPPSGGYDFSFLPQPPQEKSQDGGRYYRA
Chain of UniProt P02454 (P02466 86-1125, chain 2 of 2, further chain): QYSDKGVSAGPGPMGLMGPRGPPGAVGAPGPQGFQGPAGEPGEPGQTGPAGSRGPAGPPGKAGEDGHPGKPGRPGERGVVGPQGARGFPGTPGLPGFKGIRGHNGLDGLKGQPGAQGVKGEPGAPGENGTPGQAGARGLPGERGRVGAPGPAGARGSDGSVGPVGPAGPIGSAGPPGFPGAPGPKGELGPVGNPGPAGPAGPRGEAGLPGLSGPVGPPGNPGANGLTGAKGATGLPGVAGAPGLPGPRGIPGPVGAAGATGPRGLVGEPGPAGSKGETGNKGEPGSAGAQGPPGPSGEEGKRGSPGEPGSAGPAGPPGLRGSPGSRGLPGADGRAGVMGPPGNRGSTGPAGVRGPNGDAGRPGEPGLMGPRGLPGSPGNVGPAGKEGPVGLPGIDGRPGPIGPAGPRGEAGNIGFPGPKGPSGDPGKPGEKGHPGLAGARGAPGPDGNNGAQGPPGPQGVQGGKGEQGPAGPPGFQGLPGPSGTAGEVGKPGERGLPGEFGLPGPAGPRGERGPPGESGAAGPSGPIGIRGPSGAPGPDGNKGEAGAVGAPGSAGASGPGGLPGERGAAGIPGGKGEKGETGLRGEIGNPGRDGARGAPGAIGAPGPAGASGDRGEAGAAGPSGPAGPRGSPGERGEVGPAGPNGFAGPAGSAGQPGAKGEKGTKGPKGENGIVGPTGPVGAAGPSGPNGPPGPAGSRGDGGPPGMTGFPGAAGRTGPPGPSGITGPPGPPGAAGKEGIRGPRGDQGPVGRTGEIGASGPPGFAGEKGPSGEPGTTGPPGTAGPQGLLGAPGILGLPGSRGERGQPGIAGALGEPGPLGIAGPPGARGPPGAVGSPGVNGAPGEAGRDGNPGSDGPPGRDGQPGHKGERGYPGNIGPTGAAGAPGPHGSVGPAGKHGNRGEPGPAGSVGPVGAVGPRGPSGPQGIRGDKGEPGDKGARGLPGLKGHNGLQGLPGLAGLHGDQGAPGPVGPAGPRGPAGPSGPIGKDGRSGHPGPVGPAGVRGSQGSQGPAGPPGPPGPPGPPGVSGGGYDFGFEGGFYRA

As for “45-kDa gelatin-binding fibronectin proteolytic fragment, labelled with VivoTag-S750 (domain or fragment)”, the fold increase in binding to heated collagen, normalized to collagen at 37 °C was determined as 7.2 x and the half-maximal binding temperature (temperature to which the collagen was heated) was 43.4 °C.
As to “fibronectin fragment-conjugated iron oxide nanoworms”, the fold increase in binding over unheated controls is 6 fold and the half-maximal binding temperature (temperature to which the collagen was heated) is 41.7 °C.
